Results: article PMC8326117 (International Journal of Biological Sciences, 2021)

Target: SARS-CoV-2 S-protein RBD (SARS-CoV-2, UniProt P0DTC2)
Experiment: SPR
Settings: both partners purified

B1: S-protein neutralizing peptide AYn1 (peptide)
peptide: KKKKKKDKFNHEAEDLFY
notes: also called 6K-modified AYn1 peptide
Kd: 0.0956 µM
